The series in a line: label from the status in PepcDB records.
Regarding “NRCTFACVFCQNYDIVYEDDYIVDARELAYIIDVRRRQGSKNVNFVGGNPDQHAHTIAEILLYVESNVPVVWNSNMYHSEELAEVIEDFVDVWLGDFKYGNDECARKYSKVANYWKVVTRNFLRAKENG”, the protein production result is “failed”.

Turning to “MNATSTAPSSRHTLRSLAGDVFELLGSMRFAVSLLMFICIASIVGTVLAQNRPSNVYVDQFGPFWFEVFDKFSIWHVYNSWWFLLIMTFLVVSTSVCLIRNTPKMLREARSFREHVRASSLRAFPHRLQTEVAQPVSETAQGVTGLLGQFGYAVRERRDGDGIMLAAKKGSANRLGYIFAHSAMVIICIGGLLDSEAPVRLQVLFDGKQPIAINGEMARADIPDSALLSVNNPSYRANLWVPEGSNASLATIAVNDRSLVQPLPFSLRLKKFTVDYYSTGMPSRFLSLVEVTDPETGEMFDQTIEVNEPLRYKGVTVYQSSFDDGGSSVSLTGYPLVGAGDTPFKVDGVVGQTSEIGARIGDQPKSMKIEFTALRVINVEDFSGGQPGAQNLSLREHVASVAGSAAGKKNENLRNVGPRIDYKLIDDAGQAHEFQNYMLPVVLDGVPVFLSAVRNNPADDFQYLRIPADDQGSLAEFMRLRAALADPAARQEAARRFAERNAPSGTDRQPLETAAQRALATFAEGGLQAIADFLQANTAPDDLERAAGIVVRLVGASVAELRDIARARAGLPALPQSGPQADEAAQWSRVAVAALSDLAFYPAPVMFSLTDFQERQGSVFQVARTPGKNAVYLGCVLLILGIFAMFYIRDRRVWVWVKPAADGAGSSIEAAMTSQKRTLDFNQEFDRLREALLRQSKP”, the protein production entry is listed as “failed”.

“MTVNMTKGQAISLQKNDGGTLTAVRMGLGWQAAPRRGLFGSRTREIDLDASAVLFADKQPVDVVFFRHLVSDDGSVRHTGDNLVGGVGQGGDDEAILVDLQRLPVHIDQIVFTVNSFTGQTFQEVQNAFCRLVDETNGEELARYTLAGGGQYTAQIMAKVHRAGAGWQMTALGTPSNGRTFQDLMPAILPHL”: the protein production result is on record as “failed”.

On to “MNFGEAVSSFFRNYVNFSGRASRSEFWYSYLFIIIVGVILVIVDTIVKNEIISSIWNLAALLPTLAMTTRRLHDINRSGWHQLLAWFIPVGSIALIIWYCKKSDDTVTLSEIERVFR”, for which the protein production result is “failed”.

On to “MRLSRGVFLLLLLLALASPLMIVGCGGPSFLPAASLRDPSVDMAWPPAPNPARIRFLREISGPEQVKAEPGAIARFLEFVTGEQFKHVPFVTPYGVVSDGGTLLFVSDSSSGVVHRIDLARQKVSYIVRAGDEFLSSPVGLALSPSGDLYVSDSVNAKVYVFSRDGEFLRVLADGQVDFKRPAGLAVNSKGVLFVVDVLAHKLKVFNVSGRFLGDFPPDDIGGKLNLPSHVAVDKDDKVYVTDALNFTVKVYDSARRYLRSIGEIGDAPGSFARPRGVAVDSDLNVYVIDAAFDNFQIFNQEGQLLLFVGKPGKKSGEFYMPSGIHIDRNDRIFISDSYNRRVQVFEYLKEENR”, for which the protein production result is “failed”.

Regarding “SFKPVMQKFLHDHVDLQVSALYALQVHCYNSNFPKGMLLRFFVHFYDMEIIEEEAFLAWKEDITQEFPGKGKALFQVNQ”, the protein production result was “failed”.

With “MLPLNDYLQPFGLVIKPMQEDLTPYLGIKVKSEAGQEKITFVAAHSPAAMAGISPQDLLLAINGVRVGAEQLSLRLKDYQANDMIQLTVFHQDLLRTVDVVLASPQANRYEVVPIADPSDSQLEHHHHHH”, the protein production result is “not failed”.

On to “MKIEQLYTGCLAEAAYYIESEGEAIIIDPLRDIQTYVQKIERNNVTLKYIFETHFHADFVSGHLDLAEATGATIVYGPKAETTFNSHIAYDGEKISIGKITLQVLHTPGHTQESSCYLLYDEDGNKHALFTGDTLFIGDVGRPDLAIKSDLTKEDLAGMLYDSLEEKIKPLPDAITIYPAHGAGSACGKNLSKETFDTLGSQKQKNYALKAADKETFIKQVLDDLQPAPSYFNMNALLNKEGPGSVSELIKQGSIAFDVQSFENLQRQTYAVLLDTRDAKEFKKGFIPGSINIGLNGQLAPWAGTLLTNSDKPILIITDPGKEEETIIRLARVGVDQVIGYLKDGYNSWQKANKPEENIETISAAELVEKLDENINILDVRKADEYEKGHLNAAQHLPLDYINDWITTLDKNKTYYVHCAGGYRSVITESILKSRNISNVIDVSGGYGAIKAAMEPTKKRWLNAFFSFMKVK”, for which the protein production entry is “failed”.

For “GEGIQPSKKLITRDYKVKEFNKIDAGTVGNIYYTQSTDGKTDLQIYGPDNIVALIQVAVKDNTLFLSIDKSKKVRNFKKMKITITSPTLNGISFKGVGDVHIENGLTTDNLDIESKGVGNVDIQSLTCQKLNVQSMGVGDVKLEGTAQIAALHSKGVGNIEAGNLRANAVEASSQGVGDITCNATESIDAAVRGVGSIKYKGSPTIKSLSKKGVGTIKNI”, the protein production result is given as “not failed”.

Values taken from a protein production outcome set (Wang et al. 2014).
